Laboratory results published in patent US9598677B2, “Use of human biliverdin reductase and fragments thereof for the treatment of protein kinase C-delta and ERK related conditions” (University of Rochester, priority 2009, dated 2017).
Ends that are not written are not given here. * marks the point of attachment. Myristoyl = CCCCCCCCCCCCCC(=O)*

Columns and labels:
[1] = biological target: T1, PKC-ζ (Homo sapiens, UniProt Q05513); assay: PKC-ζ kinase assay in vitro; type: biochemical; details: MBP substrate, higher concentrations required than for PKC-δ, FIG. 5D
T1 construct: purchased Millipore
T1 sequence (Q05513 1-592): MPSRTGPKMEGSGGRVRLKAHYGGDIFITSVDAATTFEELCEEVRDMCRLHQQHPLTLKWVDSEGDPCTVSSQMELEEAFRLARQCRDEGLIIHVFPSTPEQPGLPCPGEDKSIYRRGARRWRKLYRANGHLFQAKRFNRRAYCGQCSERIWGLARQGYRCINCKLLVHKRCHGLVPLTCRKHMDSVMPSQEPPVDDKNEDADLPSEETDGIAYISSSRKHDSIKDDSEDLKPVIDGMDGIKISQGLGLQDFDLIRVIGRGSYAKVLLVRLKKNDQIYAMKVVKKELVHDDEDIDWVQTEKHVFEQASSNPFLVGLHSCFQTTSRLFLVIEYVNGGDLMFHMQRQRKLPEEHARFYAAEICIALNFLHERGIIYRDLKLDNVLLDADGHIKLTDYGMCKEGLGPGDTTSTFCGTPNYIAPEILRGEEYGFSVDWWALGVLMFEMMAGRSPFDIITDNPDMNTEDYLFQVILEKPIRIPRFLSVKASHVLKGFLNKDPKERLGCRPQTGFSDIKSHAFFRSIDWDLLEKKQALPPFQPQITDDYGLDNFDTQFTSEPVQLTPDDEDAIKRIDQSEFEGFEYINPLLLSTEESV
Experimental: (§1) Measurement of PKC-β and PKC-ζ activities. Recombinant PKC-βII (Calbiochem) was assayed in vitro in 20 mM HEPES pH 7.2, 15 mM MgCl2, 0.2 mM CaCl2, 1 mM DTT, 25 mM β-glycerophosphate, 50 μg/ml phosphatidylserine and 5 μg/ml diacylglycerol, using 12.5 μM MBP as substrate, using 5 ng of enzyme per 50 μl reaction. 100 μM ATP (containing [γ^32P]-ATP (as above) was used to start the reaction, and incorporation was determined using p81 filter binding (Maines et al., “Human Biliverdin Reductase: A Previously Unknown Activator of Protein Kinase C-βII,” J. Biol. Chem. 282:8110-8122 (2007), which is hereby incorporated by reference in its entirety). Similarly, recombinant PKC-ζ(Millipore) was assayed in 20 mM MOPS pH 7.2, 15 mM MgCl2, 0.2 mM EDTA, with 12.5 μM MBP as substrate, again using 5 ng of enzyme per 50 μl reaction (Lerner-Marmarosh et al., “Regulation of TNF-alpha-Activated PKC-zeta Signaling By the Human Biliverdin Reductase: Identification of Activating and Inhibitory Domains of the Reductase,” FASEB J. 21:3949-3962 (2007), which is hereby incorporated by reference in its entirety). Otherwise, reaction conditions were as for PKC-βII.

[2] = biological target: T2, PKC-βII (Homo sapiens, UniProt P05771); assay: PKC-βII kinase assay in vitro; type: biochemical; details: MBP substrate, concentrations that markedly inhibited PKC-δ, FIG. 5D
T2 construct: purchased Calbiochem
Experimental: as §1

T2 sequence (P05771 1-673 isoform P05771-2): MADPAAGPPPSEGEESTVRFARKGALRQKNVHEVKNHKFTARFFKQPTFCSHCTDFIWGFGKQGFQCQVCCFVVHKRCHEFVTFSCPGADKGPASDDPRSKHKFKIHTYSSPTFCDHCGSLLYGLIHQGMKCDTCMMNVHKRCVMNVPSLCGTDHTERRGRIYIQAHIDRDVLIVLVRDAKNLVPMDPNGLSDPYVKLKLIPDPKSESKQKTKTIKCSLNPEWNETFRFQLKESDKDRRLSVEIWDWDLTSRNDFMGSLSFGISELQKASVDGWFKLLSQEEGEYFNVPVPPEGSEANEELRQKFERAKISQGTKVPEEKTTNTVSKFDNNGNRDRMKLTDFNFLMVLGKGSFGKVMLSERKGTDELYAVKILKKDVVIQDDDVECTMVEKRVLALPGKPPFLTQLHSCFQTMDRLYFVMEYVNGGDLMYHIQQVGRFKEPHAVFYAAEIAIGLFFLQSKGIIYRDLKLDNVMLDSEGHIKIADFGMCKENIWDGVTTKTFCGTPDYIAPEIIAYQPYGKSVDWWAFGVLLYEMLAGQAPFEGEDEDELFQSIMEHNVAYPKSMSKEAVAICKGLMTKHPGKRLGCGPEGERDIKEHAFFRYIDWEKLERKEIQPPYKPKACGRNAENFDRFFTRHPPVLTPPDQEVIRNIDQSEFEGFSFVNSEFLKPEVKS

## KRNRYLSF (Myristoyl-KRNRYLSF)
[1]
  effect of inhibitory peptide on PKC-ζ activity: responsive
[2]
  effect of inhibitory peptide on PKC-βII activity: essentially unaffected
